Assay results: patent US20260167699A1 (Chugai, published 2026)

B1: GpH7-A5/GpH7-B3 variant A330_08L/GpL16-k0 (antibody, human IgG1, kappa)
heavy 1: not shown
heavy 2: not shown
light: DIVMTQSPLSLPVTPGEPASISCQASESLVHSNRNTYLHWYLQKPGQSPQLLIYKVSNRFSGVPDRFSGSGSGTDFTLKISRVEAEDVGVYYCSQNTHVPPTFGQGTKVEIERTVAAPSVFIFPPSDEQLKSGTASVVCLLNNFYPREAKVQWKVDNALQSGNSQESVTEQDSKDSTYSLSSTLTLSKADYEKHKVYACEVTHQGLSSPVTKSFNRGEC
notes: He Ab; copies: 1 + 1 + 2
B2: GpH7-A5/GpH7-B3 variant E333_18N/GpL16-k0 (antibody, human IgG1, kappa)
heavy 1: not shown
heavy 2: not shown
light: B1 light
notes: He Ab; copies: 1 + 1 + 2
B3: GpH7-A5/GpH7-B3 variant A330_11K/GpL16-k0 (antibody, human IgG1, kappa)
heavy 1: not shown
heavy 2: not shown
light: B1 light
notes: He Ab; copies: 1 + 1 + 2
B4: GpH7-A5/GpH7-B3 variant D270_03V/GpL16-k0 (antibody, human IgG1, kappa)
heavy 1: not shown
heavy 2: not shown
light: B1 light
notes: He Ab; copies: 1 + 1 + 2
B5: GpH7-A5/GpH7-B3 variant D270_06M/GpL16-k0 (antibody, human IgG1, kappa)
heavy 1: not shown
heavy 2: not shown
light: B1 light
notes: He Ab; copies: 1 + 1 + 2
B6: GpH7-A5/GpH7-B3 variant A330_09D/GpL16-k0 (antibody, human IgG1, kappa)
heavy 1: not shown
heavy 2: not shown
light: B1 light
notes: He Ab; copies: 1 + 1 + 2
B7: GpH7-A5/GpH7-B3 variant D270_19Q/GpL16-k0 (antibody, human IgG1, kappa)
heavy 1: not shown
heavy 2: not shown
light: B1 light
notes: He Ab; copies: 1 + 1 + 2
B8: GpH7-A5/GpH7-B3 variant E269_14T/GpL16-k0 (antibody, human IgG1, kappa)
heavy 1: not shown
heavy 2: not shown
light: B1 light
notes: He Ab; copies: 1 + 1 + 2
B9: GpH7-A5/GpH7-B3 variant D270_13S/GpL16-k0 (antibody, human IgG1, kappa)
heavy 1: not shown
heavy 2: not shown
light: B1 light
notes: He Ab; copies: 1 + 1 + 2
B10: GpH7-A5/GpH7-B3 variant D270_02A/GpL16-k0 (antibody, human IgG1, kappa)
heavy 1: not shown
heavy 2: not shown
light: B1 light
notes: He Ab; copies: 1 + 1 + 2
B11: GpH7-A5/GpH7-B3 variant A330_18N/GpL16-k0 (antibody, human IgG1, kappa)
heavy 1: not shown
heavy 2: not shown
light: B1 light
notes: He Ab; copies: 1 + 1 + 2
B12: GpH7-A5/GpH7-B3 variant D270_10E/GpL16-k0 (antibody, human IgG1, kappa)
heavy 1: not shown
heavy 2: not shown
light: B1 light
notes: He Ab; copies: 1 + 1 + 2
B13: GpH7-A5/GpH7-B3 variant E269_13S/GpL16-k0 (antibody, human IgG1, kappa)
heavy 1: not shown
heavy 2: not shown
light: B1 light
notes: He Ab; copies: 1 + 1 + 2
B14: GpH7-A5/GpH7-B3 variant E269_06M/GpL16-k0 (antibody, human IgG1, kappa)
heavy 1: not shown
heavy 2: not shown
light: B1 light
notes: He Ab; copies: 1 + 1 + 2
B15: GpH7-A5/GpH7-B3 variant G236_03V/GpL16-k0 (antibody, human IgG1, kappa)
heavy 1: not shown
heavy 2: not shown
light: B1 light
notes: He Ab; copies: 1 + 1 + 2
B16: GpH7-A5/GpH7-B3 variant D270_08L/GpL16-k0 (antibody, human IgG1, kappa)
heavy 1: not shown
heavy 2: not shown
light: B1 light
notes: He Ab; copies: 1 + 1 + 2
B17: GpH7-A5/GpH7-B3 variant E269_07I/GpL16-k0 (antibody, human IgG1, kappa)
heavy 1: not shown
heavy 2: not shown
light: B1 light
notes: He Ab; copies: 1 + 1 + 2
B18: GpH7-A5/GpH7-B3 variant E269_16H/GpL16-k0 (antibody, human IgG1, kappa)
heavy 1: not shown
heavy 2: not shown
light: B1 light
notes: He Ab; copies: 1 + 1 + 2
B19: GpH7-A5/GpH7-B3 variant A330_19Q/GpL16-k0 (antibody, human IgG1, kappa)
heavy 1: not shown
heavy 2: not shown
light: B1 light
notes: He Ab; copies: 1 + 1 + 2
B20: GpH7-A5/GpH7-B3 variant E333_12R/GpL16-k0 (antibody, human IgG1, kappa)
heavy 1: not shown
heavy 2: not shown
light: B1 light
notes: He Ab; copies: 1 + 1 + 2
B21: GpH7-A5/GpH7-B3 variant D270_14T/GpL16-k0 (antibody, human IgG1, kappa)
heavy 1: not shown
heavy 2: not shown
light: B1 light
notes: He Ab; copies: 1 + 1 + 2
B22: GpH7-A5/GpH7-B3 variant E269_19Q/GpL16-k0 (antibody, human IgG1, kappa)
heavy 1: not shown
heavy 2: not shown
light: B1 light
notes: He Ab; copies: 1 + 1 + 2
B23: GpH7-A5/GpH7-B3 variant G236_04F/GpL16-k0 (antibody, human IgG1, kappa)
heavy 1: not shown
heavy 2: not shown
light: B1 light
notes: He Ab; copies: 1 + 1 + 2
B24: GpH7-A5/GpH7-B3 variant E269_01G/GpL16-k0 (antibody, human IgG1, kappa)
heavy 1: not shown
heavy 2: not shown
light: B1 light
notes: He Ab; copies: 1 + 1 + 2
B25: GpH7-A5/GpH7-B3 variant E333_07I/GpL16-k0 (antibody, human IgG1, kappa)
heavy 1: not shown
heavy 2: not shown
light: B1 light
notes: He Ab; copies: 1 + 1 + 2
B26: GpH7-A5/GpH7-B3 variant A330_10E/GpL16-k0 (antibody, human IgG1, kappa)
heavy 1: not shown
heavy 2: not shown
light: B1 light
notes: He Ab; copies: 1 + 1 + 2
B27: GpH7-A5/GpH7-B3 variant E333_11K/GpL16-k0 (antibody, human IgG1, kappa)
heavy 1: not shown
heavy 2: not shown
light: B1 light
notes: He Ab; copies: 1 + 1 + 2
B28: GpH7-A5/GpH7-B3 variant D270_07I/GpL16-k0 (antibody, human IgG1, kappa)
heavy 1: not shown
heavy 2: not shown
light: B1 light
notes: He Ab; copies: 1 + 1 + 2
B29: GpH7-A5/GpH7-B3 variant G236_02A/GpL16-k0 (antibody, human IgG1, kappa)
heavy 1: not shown
heavy 2: not shown
light: B1 light
notes: He Ab; copies: 1 + 1 + 2
B30: GpH7-A5/GpH7-B3 variant E269_03V/GpL16-k0 (antibody, human IgG1, kappa)
heavy 1: not shown
heavy 2: not shown
light: B1 light
notes: He Ab; copies: 1 + 1 + 2
B31: GpH7-A5/GpH7-B3 variant E269_18N/GpL16-k0 (antibody, human IgG1, kappa)
heavy 1: not shown
heavy 2: not shown
light: B1 light
notes: He Ab; copies: 1 + 1 + 2
B32: GpH7-A5/GpH7-B3 variant E269_08L/GpL16-k0 (antibody, human IgG1, kappa)
heavy 1: not shown
heavy 2: not shown
light: B1 light
notes: He Ab; copies: 1 + 1 + 2
B33: GpH7-A5/GpH7-B3 variant E333_06M/GpL16-k0 (antibody, human IgG1, kappa)
heavy 1: not shown
heavy 2: not shown
light: B1 light
notes: He Ab; copies: 1 + 1 + 2
B34: GpH7-A5/GpH7-B3 variant A330_15Y/GpL16-k0 (antibody, human IgG1, kappa)
heavy 1: not shown
heavy 2: not shown
light: B1 light
notes: He Ab; copies: 1 + 1 + 2
B35: GpH7-A5/GpH7-B3 variant E269_15Y/GpL16-k0 (antibody, human IgG1, kappa)
heavy 1: not shown
heavy 2: not shown
light: B1 light
notes: He Ab; copies: 1 + 1 + 2
B36: GpH7-A5/GpH7-B3 variant E269_09D/GpL16-k0 (antibody, human IgG1, kappa)
heavy 1: not shown
heavy 2: not shown
light: B1 light
notes: He Ab; copies: 1 + 1 + 2
B37: GpH7-A5/GpH7-B3 variant A330_12R/GpL16-k0 (antibody, human IgG1, kappa)
heavy 1: not shown
heavy 2: not shown
light: B1 light
notes: He Ab; copies: 1 + 1 + 2
B38: GpH7-A5/GpH7-B3 variant E333_14T/GpL16-k0 (antibody, human IgG1, kappa)
heavy 1: not shown
heavy 2: not shown
light: B1 light
notes: He Ab; copies: 1 + 1 + 2
B39: GpH7-A5/GpH7-B3 variant A330_14T/GpL16-k0 (antibody, human IgG1, kappa)
heavy 1: not shown
heavy 2: not shown
light: B1 light
notes: He Ab; copies: 1 + 1 + 2
B40: GpH7-A5/GpH7-B3 variant A330_16H/GpL16-k0 (antibody, human IgG1, kappa)
heavy 1: not shown
heavy 2: not shown
light: B1 light
notes: He Ab; copies: 1 + 1 + 2
B41: GpH7-A5/GpH7-B3 variant A330_20W/GpL16-k0 (antibody, human IgG1, kappa)
heavy 1: not shown
heavy 2: not shown
light: B1 light
notes: He Ab; copies: 1 + 1 + 2
B42: GpH7-A5/GpH7-B3 variant E333_01G/GpL16-k0 (antibody, human IgG1, kappa)
heavy 1: not shown
heavy 2: not shown
light: B1 light
notes: He Ab; copies: 1 + 1 + 2
B43: GpH7-A5/GpH7-B3 variant D270_18N/GpL16-k0 (antibody, human IgG1, kappa)
heavy 1: not shown
heavy 2: not shown
light: B1 light
notes: He Ab; copies: 1 + 1 + 2
B44: GpH7-A5/GpH7-B3 variant E269_02A/GpL16-k0 (antibody, human IgG1, kappa)
heavy 1: not shown
heavy 2: not shown
light: B1 light
notes: He Ab; copies: 1 + 1 + 2

target: T1, FcγRIIIa extracellular domain, C-terminal His tag (human, UniProt P08637 17-208); test: SPR, binding activity relative to GpH7-A5/GpH7-B3/GpL16-k0 (=100)
T1 construct: extracellular domain; also called 3a
T1 sequence (P08637 other isoform, or with tags, fused parts or gaps): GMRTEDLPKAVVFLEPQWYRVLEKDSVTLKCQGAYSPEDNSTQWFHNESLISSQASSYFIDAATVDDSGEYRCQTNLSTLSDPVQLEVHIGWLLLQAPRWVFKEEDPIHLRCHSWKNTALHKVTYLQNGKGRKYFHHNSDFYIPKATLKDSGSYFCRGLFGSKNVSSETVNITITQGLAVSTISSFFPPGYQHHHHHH

| Binder | He/Con 3a [%] |
| --- | --- |
| B1 | 122 |
| B2 | 76.2 |
| B3 | 91.8 |
| B4 | 54.6 |
| B5 | 60 |
| B6 | 56.4 |
| B7 | 74.2 |
| B8 | 59.7 |
| B9 | 51.4 |
| B10 | 50.5 |
| B11 | 67.3 |
| B12 | 112 |
| B13 | 62.1 |
| B14 | 57.9 |
| B15 | 53.8 |
| B16 | 65.1 |
| B17 | 55.3 |
| B18 | 50.7 |
| B19 | 86.3 |
| B20 | 92.2 |
| B21 | 55.4 |
| B22 | 64.3 |

| Binder | He/Con 3a [%] |
| --- | --- |
| B23 | 81 |
| B24 | 61.6 |
| B25 | 100 |
| B26 | 82.8 |
| B27 | 97.7 |
| B28 | 63.1 |
| B29 | 77 |
| B30 | 56 |
| B31 | 57.2 |
| B32 | 51.5 |
| B33 | 100 |
| B34 | 122 |
| B35 | 51.5 |
| B36 | 106 |
| B37 | 77.3 |
| B38 | 100 |
| B39 | 85.8 |
| B40 | 102 |
| B41 | 102 |
| B42 | 101 |
| B43 | 51.2 |
| B44 | 68 |
